Substrate: NC(=O)C[C@H](N)C(=O)O
Experiment: purified protein
Type: biochemical, Melioribacter roseus
Details: borate buffer 0.025 M, pH 9.3, 70 °C

B1: MrAII (type II L-asparaginase from M. roseus) (Melioribacter roseus P3M-2) (protein)
chain: MKNILIIFTGGTFSMKIDRETNSAVPYYHGEELLKIIPEADKKANISVYEFGNYPGPHMTPELMLELSEIVKKYINQNDTDGIIITHGTDTLEETAYFLDLTVKTEKPIVVIGAMKTSSEPDWDGPKNLLDAISIINNPNSGNMGVLVCLNGEINAASEVTKTHTEDIETFHSLDFGSLGFVENDRVIFNRLPRKLETFETAKINSNVDLIKVYAGMNEKFFKFSADSGADGLVVEAMGVGNVPPKAFEGIKYVIEKGIPVVLVSRCPAGETLDIYGYEGAGKWLKKAGVIFSDYLNGQKARIKLIVCLGITNEIAKLRSMFEDEQ
notes: synthetic native gene (981 nt, printed as 327 aa) in pET-28a(+) NheI/SalI, E. coli BL21(DE3); Q-Sepharose purified
How did the Km turn out when B1 was run?
Its Km is 1400 µM.
